Assay results taken from patent publication CN112500478A.

Target: 非洲猪瘟病毒(African swine fever Virus, ASFV)全病毒 / 灭活非洲猪瘟病毒抗原

B1: 抗非洲猪瘟病毒的ScFv抗体VH-VLλ6 (scFv)
scFv: MEVKLVESGGGLVQPGGSLRLSCVGSGVTVTSYTVSWVRQAPGKGLEWLAGNGSSSKTTVDSDSVRGRFFISRDNSQNTAYLQMNSLRTEDTARYYCVQTIDSDCTSRLWGPGVEVVVGGGGSGGMSQTVIQEPAMSVSPGGTVTLTCAFSSATVTISNYPGWYQQTPRQPPRQLIYGLSSRPTGVPSRFSGAISGNKATLTITGAQAEDEADYFCALYNAGSRYNYMFGGGTHLTVL
Question: Which OD450nm does the source give for B1 here?
Answer: 1.15 OD450nm
